Reference: article PMC11432317

Target: receptor binding domain (RBD) of the SARS-CoV-2 spike protein (residues 319-541) (SARS-CoV-2) (UniProt P0DTC2)
Experiment: SPR

Substance: wild-type sACE2-Fc (soluble ACE2, residues 1-615, fused to human IgG Fc) (from UniProt Q9BYF1 18-615) (Fc fusion)
- Kd: 23.2 nM
